Laboratory results published in patent US20060024313A1 (published 2006).

Tests used:
[1] = molecular target: the molecule itself; assay: dimer form listed in the table of kinetic constants (self-association)
AUC (self-association) = molecular target: the molecule itself; assay: AUC (self-association)
DPP-IV H750E mutant = molecular target: T1, DPP-IV H750E mutant (human, UniProt P27487 39-766); assay: ADA affinity column purification
T1 construct: range 39-766; Monomeric by AUC

DPP-IV H750A mutant = molecular target: T2, DPP-IV H750A mutant (human, UniProt P27487 39-766); assay: ADA affinity column purification
T2 construct: range 39-766; also called H750A dimer; H750A monomer

Binder | binding result (AUC (self-association)) | further results
DPP-IV V724A mutant (enzyme, human, UniProt P27487 39-766, looked up, Mixture of monomers and dimers) SRKTYTLTDYLKNTYRLKLYSLRWISDHEYLYKQENNILVFNAEYGNSSVFLENSTFDEFGHSINDYSISPDGQFILLEYNYVKQWRHSYTASYDIYDLNKRQLITEERIPNNTQWVTWSPVGHKLAYVWNNDIYVKIEPNLPSYRITWTGKEDIIYNGITDWVYEEEVFSAYSALWWSPNGTFLAYAQFNDTEVPLIEYSFYSDESLQYPKTVRVPYPKAGAVNPTVKFFVVNTDSLSSVTNATSIQITAPASMLIGDHYLCDVTWATQERISLQWLRRIQNYSVMDICDYDESSGRWNCLVARQHIEMSTTGWVGRFRPSEPHFTLDGNSFYKIISNEEGYRHICYFQIDKKDCTFITKGTWEVIGIEALTSDYLYYISNEYKGMPGGRNLYKIQLSDYTKVTCLSCELNPERCQYYSVSFSKEAKYYQLRCSGPGLPLYTLHSSVNDKGLRVLEDNSALDKMLQNVQMPSKKLDFIILNETKFWYQMILPPHFDKSKKYPLLLDVYAGPCSQKADTVFRLNWATYLASTENIIVASFDGRGSGYQGDKIMHAINRRLGTFEVEDQIEAARQFSKMGFVDNKRIAIWGWSYGGYVTSMVLGSGSGVFKCGIAVAPVSRWEYYDSVYTERYMGLPTPEDNLDHYRNSTVMSRAENFKQVEYLLIHGTADDNVHFQQSAQISKALADVGVDFQAMWYTDEDHGIASSTAHQHIYTHMSHFIKQCFSLP |  | binding result [1]: binds
DPP-IV F730A mutant (enzyme, human, UniProt P27487 39-766, looked up, Mixture of monomers and dimers) SRKTYTLTDYLKNTYRLKLYSLRWISDHEYLYKQENNILVFNAEYGNSSVFLENSTFDEFGHSINDYSISPDGQFILLEYNYVKQWRHSYTASYDIYDLNKRQLITEERIPNNTQWVTWSPVGHKLAYVWNNDIYVKIEPNLPSYRITWTGKEDIIYNGITDWVYEEEVFSAYSALWWSPNGTFLAYAQFNDTEVPLIEYSFYSDESLQYPKTVRVPYPKAGAVNPTVKFFVVNTDSLSSVTNATSIQITAPASMLIGDHYLCDVTWATQERISLQWLRRIQNYSVMDICDYDESSGRWNCLVARQHIEMSTTGWVGRFRPSEPHFTLDGNSFYKIISNEEGYRHICYFQIDKKDCTFITKGTWEVIGIEALTSDYLYYISNEYKGMPGGRNLYKIQLSDYTKVTCLSCELNPERCQYYSVSFSKEAKYYQLRCSGPGLPLYTLHSSVNDKGLRVLEDNSALDKMLQNVQMPSKKLDFIILNETKFWYQMILPPHFDKSKKYPLLLDVYAGPCSQKADTVFRLNWATYLASTENIIVASFDGRGSGYQGDKIMHAINRRLGTFEVEDQIEAARQFSKMGFVDNKRIAIWGWSYGGYVTSMVLGSGSGVFKCGIAVAPVSRWEYYDSVYTERYMGLPTPEDNLDHYRNSTVMSRAENFKQVEYLLIHGTADDNVHFQQSAQISKALVDVGVDAQAMWYTDEDHGIASSTAHQHIYTHMSHFIKQCFSLP |  | binding result [1]: binds
DPP-IV W734A mutant (enzyme, human, UniProt P27487 39-766, looked up, Monomer by AUC) SRKTYTLTDYLKNTYRLKLYSLRWISDHEYLYKQENNILVFNAEYGNSSVFLENSTFDEFGHSINDYSISPDGQFILLEYNYVKQWRHSYTASYDIYDLNKRQLITEERIPNNTQWVTWSPVGHKLAYVWNNDIYVKIEPNLPSYRITWTGKEDIIYNGITDWVYEEEVFSAYSALWWSPNGTFLAYAQFNDTEVPLIEYSFYSDESLQYPKTVRVPYPKAGAVNPTVKFFVVNTDSLSSVTNATSIQITAPASMLIGDHYLCDVTWATQERISLQWLRRIQNYSVMDICDYDESSGRWNCLVARQHIEMSTTGWVGRFRPSEPHFTLDGNSFYKIISNEEGYRHICYFQIDKKDCTFITKGTWEVIGIEALTSDYLYYISNEYKGMPGGRNLYKIQLSDYTKVTCLSCELNPERCQYYSVSFSKEAKYYQLRCSGPGLPLYTLHSSVNDKGLRVLEDNSALDKMLQNVQMPSKKLDFIILNETKFWYQMILPPHFDKSKKYPLLLDVYAGPCSQKADTVFRLNWATYLASTENIIVASFDGRGSGYQGDKIMHAINRRLGTFEVEDQIEAARQFSKMGFVDNKRIAIWGWSYGGYVTSMVLGSGSGVFKCGIAVAPVSRWEYYDSVYTERYMGLPTPEDNLDHYRNSTVMSRAENFKQVEYLLIHGTADDNVHFQQSAQISKALVDVGVDFQAMAYTDEDHGIASSTAHQHIYTHMSHFIKQCFSLP | no binding | 
DPP-IV F713R mutant (enzyme, human, UniProt P27487 39-766, looked up) SRKTYTLTDYLKNTYRLKLYSLRWISDHEYLYKQENNILVFNAEYGNSSVFLENSTFDEFGHSINDYSISPDGQFILLEYNYVKQWRHSYTASYDIYDLNKRQLITEERIPNNTQWVTWSPVGHKLAYVWNNDIYVKIEPNLPSYRITWTGKEDIIYNGITDWVYEEEVFSAYSALWWSPNGTFLAYAQFNDTEVPLIEYSFYSDESLQYPKTVRVPYPKAGAVNPTVKFFVVNTDSLSSVTNATSIQITAPASMLIGDHYLCDVTWATQERISLQWLRRIQNYSVMDICDYDESSGRWNCLVARQHIEMSTTGWVGRFRPSEPHFTLDGNSFYKIISNEEGYRHICYFQIDKKDCTFITKGTWEVIGIEALTSDYLYYISNEYKGMPGGRNLYKIQLSDYTKVTCLSCELNPERCQYYSVSFSKEAKYYQLRCSGPGLPLYTLHSSVNDKGLRVLEDNSALDKMLQNVQMPSKKLDFIILNETKFWYQMILPPHFDKSKKYPLLLDVYAGPCSQKADTVFRLNWATYLASTENIIVASFDGRGSGYQGDKIMHAINRRLGTFEVEDQIEAARQFSKMGFVDNKRIAIWGWSYGGYVTSMVLGSGSGVFKCGIAVAPVSRWEYYDSVYTERYMGLPTPEDNLDHYRNSTVMSRAENFKQVEYLLIHGTADDNVHRQQSAQISKALVDVGVDFQAMWYTDEDHGIASSTAHQHIYTHMSHFIKQCFSLP | no binding | 
DPP-IV Y735A mutant (enzyme, human, UniProt P27487 39-766, looked up, Monomer by AUC) SRKTYTLTDYLKNTYRLKLYSLRWISDHEYLYKQENNILVFNAEYGNSSVFLENSTFDEFGHSINDYSISPDGQFILLEYNYVKQWRHSYTASYDIYDLNKRQLITEERIPNNTQWVTWSPVGHKLAYVWNNDIYVKIEPNLPSYRITWTGKEDIIYNGITDWVYEEEVFSAYSALWWSPNGTFLAYAQFNDTEVPLIEYSFYSDESLQYPKTVRVPYPKAGAVNPTVKFFVVNTDSLSSVTNATSIQITAPASMLIGDHYLCDVTWATQERISLQWLRRIQNYSVMDICDYDESSGRWNCLVARQHIEMSTTGWVGRFRPSEPHFTLDGNSFYKIISNEEGYRHICYFQIDKKDCTFITKGTWEVIGIEALTSDYLYYISNEYKGMPGGRNLYKIQLSDYTKVTCLSCELNPERCQYYSVSFSKEAKYYQLRCSGPGLPLYTLHSSVNDKGLRVLEDNSALDKMLQNVQMPSKKLDFIILNETKFWYQMILPPHFDKSKKYPLLLDVYAGPCSQKADTVFRLNWATYLASTENIIVASFDGRGSGYQGDKIMHAINRRLGTFEVEDQIEAARQFSKMGFVDNKRIAIWGWSYGGYVTSMVLGSGSGVFKCGIAVAPVSRWEYYDSVYTERYMGLPTPEDNLDHYRNSTVMSRAENFKQVEYLLIHGTADDNVHFQQSAQISKALVDVGVDFQAMWATDEDHGIASSTAHQHIYTHMSHFIKQCFSLP | no binding | 
DPP-IV Y248A mutant (enzyme, human, UniProt P27487 39-766, looked up, Monomer by AUC) SRKTYTLTDYLKNTYRLKLYSLRWISDHEYLYKQENNILVFNAEYGNSSVFLENSTFDEFGHSINDYSISPDGQFILLEYNYVKQWRHSYTASYDIYDLNKRQLITEERIPNNTQWVTWSPVGHKLAYVWNNDIYVKIEPNLPSYRITWTGKEDIIYNGITDWVYEEEVFSAYSALWWSPNGTFLAYAQFNDTEVPLIEYSFYSDESLQAPKTVRVPYPKAGAVNPTVKFFVVNTDSLSSVTNATSIQITAPASMLIGDHYLCDVTWATQERISLQWLRRIQNYSVMDICDYDESSGRWNCLVARQHIEMSTTGWVGRFRPSEPHFTLDGNSFYKIISNEEGYRHICYFQIDKKDCTFITKGTWEVIGIEALTSDYLYYISNEYKGMPGGRNLYKIQLSDYTKVTCLSCELNPERCQYYSVSFSKEAKYYQLRCSGPGLPLYTLHSSVNDKGLRVLEDNSALDKMLQNVQMPSKKLDFIILNETKFWYQMILPPHFDKSKKYPLLLDVYAGPCSQKADTVFRLNWATYLASTENIIVASFDGRGSGYQGDKIMHAINRRLGTFEVEDQIEAARQFSKMGFVDNKRIAIWGWSYGGYVTSMVLGSGSGVFKCGIAVAPVSRWEYYDSVYTERYMGLPTPEDNLDHYRNSTVMSRAENFKQVEYLLIHGTADDNVHFQQSAQISKALVDVGVDFQAMWYTDEDHGIASSTAHQHIYTHMSHFIKQCFSLP | no binding | 
DPP-IV F713A mutant (enzyme, human, UniProt P27487 39-766, looked up) SRKTYTLTDYLKNTYRLKLYSLRWISDHEYLYKQENNILVFNAEYGNSSVFLENSTFDEFGHSINDYSISPDGQFILLEYNYVKQWRHSYTASYDIYDLNKRQLITEERIPNNTQWVTWSPVGHKLAYVWNNDIYVKIEPNLPSYRITWTGKEDIIYNGITDWVYEEEVFSAYSALWWSPNGTFLAYAQFNDTEVPLIEYSFYSDESLQYPKTVRVPYPKAGAVNPTVKFFVVNTDSLSSVTNATSIQITAPASMLIGDHYLCDVTWATQERISLQWLRRIQNYSVMDICDYDESSGRWNCLVARQHIEMSTTGWVGRFRPSEPHFTLDGNSFYKIISNEEGYRHICYFQIDKKDCTFITKGTWEVIGIEALTSDYLYYISNEYKGMPGGRNLYKIQLSDYTKVTCLSCELNPERCQYYSVSFSKEAKYYQLRCSGPGLPLYTLHSSVNDKGLRVLEDNSALDKMLQNVQMPSKKLDFIILNETKFWYQMILPPHFDKSKKYPLLLDVYAGPCSQKADTVFRLNWATYLASTENIIVASFDGRGSGYQGDKIMHAINRRLGTFEVEDQIEAARQFSKMGFVDNKRIAIWGWSYGGYVTSMVLGSGSGVFKCGIAVAPVSRWEYYDSVYTERYMGLPTPEDNLDHYRNSTVMSRAENFKQVEYLLIHGTADDNVHAQQSAQISKALVDVGVDFQAMWYTDEDHGIASSTAHQHIYTHMSHFIKQCFSLP | no binding | 
Bovine adenosine deaminase (ADA) (enzyme, UniProt P56658 2-363, looked up, coupled to CNBr-activated Sepharose 4B (affinity column)) AQTPAFNKPKVELHVHLDGAIKPETILYYGRKRGIALPADTPEELQNIIGMDKPLSLPEFLAKFDYYMPAIAGCREAVKRIAYEFVEMKAKDGVVYVEVRYSPHLLANSKVEPIPWNQAEGDLTPDEVVSLVNQGLQEGERDFGVKVRSILCCMRHQPSWSSEVVELCKKYREQTVVAIDLAGDETIEGSSLFPGHVKAYAEAVKSGVHRTVHAGEVGSANVVKEAVDTLKTERLGHGYHTLEDATLYNRLRQENMHFEVCPWSSYLTGAWKPDTEHPVVRFKNDQVNYSLNTDDPLIFKSTLDTDYQMTKNEMGFTEEEFKRLNINAAKSSFLPEDEKKELLDLLYKAYGMPSPASAEQCL |  | binding result (DPP-IV H750E mutant): binds; binding result (DPP-IV H750A mutant): binds
